Laboratory results from IntAct's records for PubMed 27153538.

B1: TP53-binding protein 1 (Homo sapiens), Q12888 (parent)
chain: MDPTGSQLDSDFSQQDTPCLIIEDSQPESQVLEDDSGSHFSMLSRHLPNLQTHKENPVLDVVSNPEQTAGEERGDGNSGFNEHLKENKVADPVDSSNLDTCGSISQVIEQLPQPNRTSSVLGMSVESAPAVEEEKGEELEQKEKEKEEDTSGNTTHSLGAEDTASSQLGFGVLELSQSQDVEENTVPYEVDKEQLQSVTTNSGYTRLSDVDANTAIKHEEQSNEDIPIAEQSSKDIPVTAQPSKDVHVVKEQNPPPARSEDMPFSPKASVAAMEAKEQLSAQELMESGLQIQKSPEPEVLSTQEDLFDQSNKTVSSDGCSTPSREEGGCSLASTPATTLHLLQLSGQRSLVQDSLSTNSSDLVAPSPDAFRSTPFIVPSSPTEQEGRQDKPMDTSVLSEEGGEPFQKKLQSGEPVELENPPLLPESTVSPQASTPISQSTPVFPPGSLPIPSQPQFSHDIFIPSPSLEEQSNDGKKDGDMHSSSLTVECSKTSEIEPKNSPEDLGLSLTGDSCKLMLSTSEYSQSPKMESLSSHRIDEDGENTQIEDTEPMSPVLNSKFVPAENDSILMNPAQDGEVQLSQNDDKTKGDDTDTRDDISILATGCKGREETVAEDVCIDLTCDSGSQAVPSPATRSEALSSVLDQEEAMEIKEHHPEEGSSGSEVEEIPETPCESQGEELKEENMESVPLHLSLTETQSQGLCLQKEMPKKECSEAMEVETSVISIDSPQKLAILDQELEHKEQEAWEEATSEDSSVVIVDVKEPSPRVDVSCEPLEGVEKCSDSQSWEDIAPEIEPCAENRLDTKEEKSVEYEGDLKSGTAETEPVEQDSSQPSLPLVRADDPLRLDQELQQPQTQEKTSNSLTEDSKMANAKQLSSDAEAQKLGKPSAHASQSFCESSSETPFHFTLPKEGDIIPPLTGATPPLIGHLKLEPKRHSTPIGISNYPESTIATSDVMSESMVETHDPILGSGKGDSGAAPDVDDKLCLRMKLVSPETEASEESLQFNLEKPATGERKNGSTAVAESVASPQKTMSVLSCICEARQENEARSEDPPTTPIRGNLLHFPSSQGEEEKEKLEGDHTIRQSQQPMKPISPVKDPVSPASQKMVIQGPSSPQGEAMVTDVLEDQKEGRSTNKENPSKALIERPSQNNIGIQTMECSLRVPETVSAATQTIKNVCEQGTSTVDQNFGKQDATVQTERGSGEKPVSAPGDDTESLHSQGEEEFDMPQPPHGHVLHRHMRTIREVRTLVTRVITDVYYVDGTEVERKVTEETEEPIVECQECETEVSPSQTGGSSGDLGDISSFSSKASSLHRTSSGTSLSAMHSSGSSGKGAGPLRGKTSGTEPADFALPSSRGGPGKLSPRKGVSQTGTPVCEEDGDAGLGIRQGGKAPVTPRGRGRRGRPPSRTTGTRETAVPGPLGIEDISPNLSPDDKSFSRVVPRVPDSTRRTDVGAGALRRSDSPEIPFQAAAGPSDGLDASSPGNSFVGLRVVAKWSSNGYFYSGKITRDVGAGKYKLLFDDGYECDVLGKDILLCDPIPLDTEVTALSEDEYFSAGVVKGHRKESGELYYSIEKEGQRKWYKRMAVILSLEQGNRLREQYGLGPYEAVTPLTKAADISLDNLVEGKRKRRSNVSSPATPTASSSSSTTPTRKITESPRASMGVLSGKRKLITSEEERSPAKRGRKSATVKPGAVGAGEFVSPCESGDNTGEPSALEEQRGPLPLNKTLFLGYAFLLTMATTSDKLASRSKLPDGPTGSSEEEEEFLEIPPFNKQYTESQLRAGAGYILEDFNEAQCNTAYQCLLIADQHCRTRKYFLCLASGIPCVSHVWVHDSCHANQLQNYRNYLLPAGYSLEEQRILDWQPRENPFQNLKVLLVSDQQQNFLELWSEILMTGGAASVKQHHSSAHNKDIALGVFDVVVTDPSCPASVLKCAEALQLPVVSQEWVIQCLIVGERIGFKQHPKYKHDYVSH

Variants of: B1
Conditions: with h4_human H4C16, P62805

effect of a mutation on the interaction	Variant
disrupting interaction strength	D1521R
